Source: patent US20250042994A1 (HAINAN SIMCERE ZAIMING PHARMACEUTICAL, published 2025)

T1: human CD19 on Raji cells (human, UniProt P15391 20-556)
T1 construct: whole, on cells
T1 sequence (looked up): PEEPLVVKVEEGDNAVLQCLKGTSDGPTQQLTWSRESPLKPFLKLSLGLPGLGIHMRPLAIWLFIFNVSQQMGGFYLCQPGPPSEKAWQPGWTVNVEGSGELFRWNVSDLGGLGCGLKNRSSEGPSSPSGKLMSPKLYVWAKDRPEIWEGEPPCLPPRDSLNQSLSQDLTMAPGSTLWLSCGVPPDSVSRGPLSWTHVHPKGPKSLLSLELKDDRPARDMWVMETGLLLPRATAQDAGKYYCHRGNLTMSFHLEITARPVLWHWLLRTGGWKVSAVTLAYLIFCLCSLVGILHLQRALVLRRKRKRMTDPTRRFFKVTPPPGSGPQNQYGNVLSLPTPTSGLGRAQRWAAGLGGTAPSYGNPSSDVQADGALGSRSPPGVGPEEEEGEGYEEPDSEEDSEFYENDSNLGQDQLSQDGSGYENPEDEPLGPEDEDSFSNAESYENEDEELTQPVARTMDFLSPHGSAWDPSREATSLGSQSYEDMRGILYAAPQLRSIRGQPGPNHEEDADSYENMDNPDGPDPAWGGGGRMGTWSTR

T2: cynomolgus monkey CD19 on peripheral blood B cells (cynomolgus monkey (Macaca fascicularis), UniProt A0A2K5W8L9 20-557)
T2 construct: whole, on cells; also called cynomolgus monkey B cells
T2 sequence: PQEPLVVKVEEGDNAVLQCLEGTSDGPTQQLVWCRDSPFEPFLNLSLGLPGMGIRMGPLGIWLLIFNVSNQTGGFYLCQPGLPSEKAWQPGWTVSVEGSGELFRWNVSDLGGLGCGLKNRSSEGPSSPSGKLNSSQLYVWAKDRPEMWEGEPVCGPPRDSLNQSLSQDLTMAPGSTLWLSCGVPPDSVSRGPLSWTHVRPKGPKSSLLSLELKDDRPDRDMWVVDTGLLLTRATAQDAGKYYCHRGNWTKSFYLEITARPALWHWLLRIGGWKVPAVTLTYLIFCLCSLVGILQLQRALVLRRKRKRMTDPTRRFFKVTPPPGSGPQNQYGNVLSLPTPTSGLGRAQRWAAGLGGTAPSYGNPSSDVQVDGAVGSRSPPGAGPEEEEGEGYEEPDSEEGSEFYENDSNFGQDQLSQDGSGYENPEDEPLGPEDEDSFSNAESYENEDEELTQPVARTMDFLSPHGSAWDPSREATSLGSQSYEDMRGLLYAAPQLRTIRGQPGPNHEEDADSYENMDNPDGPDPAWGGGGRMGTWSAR

T3: human CD19 on CHO-K1-human CD19 cells (human, UniProt P15391 20-556)
T3 construct: whole, on cells; also called CHO-K1-human CD19-2C8
T3 sequence (looked up): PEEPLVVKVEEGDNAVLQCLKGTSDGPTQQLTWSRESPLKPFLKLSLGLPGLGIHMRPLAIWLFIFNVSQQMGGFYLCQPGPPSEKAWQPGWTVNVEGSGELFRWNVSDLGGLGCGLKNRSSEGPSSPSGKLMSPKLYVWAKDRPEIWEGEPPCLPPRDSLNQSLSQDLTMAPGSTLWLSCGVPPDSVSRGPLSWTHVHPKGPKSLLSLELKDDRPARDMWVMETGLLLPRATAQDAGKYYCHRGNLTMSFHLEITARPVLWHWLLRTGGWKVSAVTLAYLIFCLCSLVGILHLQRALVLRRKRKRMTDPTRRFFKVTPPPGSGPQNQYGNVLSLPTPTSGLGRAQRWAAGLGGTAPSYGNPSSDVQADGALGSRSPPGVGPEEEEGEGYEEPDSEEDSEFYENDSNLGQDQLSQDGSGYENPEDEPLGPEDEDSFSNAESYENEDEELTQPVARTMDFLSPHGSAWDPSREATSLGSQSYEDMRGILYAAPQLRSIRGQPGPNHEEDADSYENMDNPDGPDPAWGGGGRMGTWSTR


What was measured:
[1] = molecular target: T1, human CD19 on Raji cells; assay: FACS on Raji cells
[2] = molecular target: T2, cynomolgus monkey CD19 on peripheral …; assay: FACS, cynomolgus PBMC, CD20+ B cells
[3] = molecular target: T3, human CD19 on CHO-K1-human CD19 cells; assay: FACS on CHO-K1-human CD19 cells
[4] = molecular target: T4, monkey CD19 on HEK293T-monkey CD19 cells (monkey); assay: FACS on HEK293T-monkey CD19 cells
T4 construct: whole, on cells
How it was run: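 Antibody binding was read as MFI by flow cytometry and EC50 was taken from curve fitting. Before that, cells at 2×10⁶ cells/ml in PBS with 2% (w/w) BSA were exposed to samples for 2 h on ice and washed. Parental HEK293T cells were tested the same way.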

Binder	EC50 [1] [nM]	Maximum mean fluorescence intensity [1]	Proportion of chimeric antibody positive cells to B cells (%) at 1 nM [2] [%]	Proportion of chimeric antibody positive cells to B cells (%) at 10 nM [2] [%]	Proportion of chimeric antibody positive cells to B cells (%) at 100 nM [2] [%]	EC50 [3] [nM]	Maximum mean fluorescence intensity [3]	EC50 [4] [nM]	Maximum mean fluorescence intensity [4]
F4.21.2 (antibody, human IgG1, V domains shown, human-murine chimeric antibody, human IgG1) VH: QVQLKQSGPGLVQPSQSLSITCTVSGFSLSTYGVHWVRQSPGRGLEWLGVIWIGGTTDYNAAFISRLTISKDNSRGQVFFKMDSLQANDTAIYYCARKGYYKYDGGYYYAMDYWGQGTSVTVSS VL: DIQMTQSSSYLSVSLGGRVTITCKASDHINNWLAWYQQKPGNAPWLLISGATSLETGVPSRFSGSGSGKDYTLSISSLQTEDVATYYCQQYWSTPLTFGAGTKLELK	2.69	30800	2	3	18	1.02	52600	9.1	39200
F4.22.6 (antibody, human IgG1, V domains shown, human-murine chimeric antibody, human IgG1) VH: QVQLQQSGPELVKPGASVKISCKASGYAFSSFWMNWVKQRPGQGLEWIGRIYPGDGDTNYNGKFKGKATLTADKSSTTAYMHLSSLTSVDSAVYFCTRSVITAVVDWYFDVWGAGTTVTVSS VL: QIVLSQSPAILSASPGEKVTLTCRASSSVNFMHWYQQKPGSSPKPWIYATSNLASGAPARFSGSGSGTSYSLTISRVEAEDAAAYYCQQWSSYPIFTFGSGTKLEIK	0.67	27300	2	2	12	0.1	14700	~129	7380
F4.18.13 (antibody, human IgG1, V domains shown, human-murine chimeric antibody, human IgG1) VH: QVQLQQSGPELVKPGASVKISCKASGYAFSSFWMNWVKQRPGEGLEWIGRIYPGDGDTNYNGKFKGKATLTADDSSSTAYMQLSSLTSVDSAVYFCAREVIAAVVTTDFDYWGQGTTLTVSS VL: DIQMTQTTSSLSASLGDRVTISCRTSQDISNYLNWYLQKPDGTVKLLIYYTSGLHSGVPSRFSGSGSGTDYSLTISNLEPEDIATYFCQQGKTLPYTFGGGTKLEIK	1.31	35200	2	8	21	0.6	51600	26.2	19700
F4.33.12 (antibody, human IgG1, V domains shown, human-murine chimeric antibody, human IgG1) VH: QVQLQQSGAELVRPGSSVKISCKGSGYAFSSYWMNWVKQRPGQGLEWIGQIYPGDGDTNYNGKFKGKATLTADKSSSTAYMQLSSLTSEDSAVYFCARAGFYYGSDSSMDYWGQGTSVTVSS VL: not shown	2.6	28200	1	1	2	1.47	52500	–	50
F4.35.5 (antibody, human IgG1, V domains shown, human-murine chimeric antibody, human IgG1) VH: EIQLQQSGPELVKPGASVKVSCKASGYAFTSYNMYWVKQSHGKSLEWIGYIDPYNGDTRYNQKFKGKATLTVDKSSSTAYMHLNSLTSEDSAVYYCTRSGTGRDYWGQGTTLTVSS VL: QIVLTQSPAIMSASPGEKVTMTCSASSSISYMFWFQQKPGSSPRLLIYDTSSLASGVPVRFSGSGSGTSYTLTISRMEAEDAATYYCQQWSNYPYTFGGGTKLEMK	0.69	25000	1	2	3	1.08	50000	–	70

Results, then the binder that gave them:

EC50 [1] [nM]	Maximum mean fluorescence intensity [1]	Proportion of chimeric antibody positive cells to B cells (%) at 1 nM [2] [%]	Proportion of chimeric antibody positive cells to B cells (%) at 10 nM [2] [%]	Proportion of chimeric antibody positive cells to B cells (%) at 100 nM [2] [%]	EC50 [3] [nM]	Maximum mean fluorescence intensity [3]	EC50 [4] [nM]	Maximum mean fluorescence intensity [4]	Binder
0.55	29300	1	8	22	0.48	52700	184	14300	F4.48.12 (antibody, human IgG1, V domains shown, human-murine chimeric antibody, human IgG1) VH: QMQLKESGPGLVAPSQSLSITCTVSGFSLTDYGVSWIRQPPGKGLEWLGVIWGSGSTFYNSALTSRLSISKDNSKSQVFLKMNSLQTADTAMYFCAKHHYYGGSFAMDYWGQGTSVTVSS VL: DIQMTQASSSLSASLGDRVTISCKTSQDISNYLNWYQQKPDGTFKLLIHYTSRLHSGVPSRFSGSGSGSDYSLTISNLEREDIATYFCQQGNSLPYTFGGGTKLEMK
1.02	23400	1	2	2	1.49	48600	–	545	F4.41.1 (antibody, human IgG1, V domains shown, human-murine chimeric antibody, human IgG1) VH: QVQLQQSGAELVRPGTSVKVSCKASGYAFTNYLIEWVKQRPGQGLEWIGVINPGSGDTLYNEKFKGKATLTADKSSTTAYMQLSGLTSDVSAIYFCARSPPITTIVADYFDYWGQGTTLTVSS VL: DIQMTQTTSSLSASLGDRVTISCRASQDISNYLNWYQQKPDGTVKLLIYYTSRLHSGVPSRFSGSGSGADYSLTISNLEQEDIATYFCQQGKTLPYTFGGGTKLEIK
0.51	24600	2	2	6	~0.035	8490	–	58	F4.37.6 (antibody, human IgG1, V domains shown, human-murine chimeric antibody, human IgG1) VH: QVQLQQSGAELARPGASVKLSCKASGYTFTSFWMQWLKQRPGQGLEWIGTIYPGDGDTRYTQKFKGKATLTADKSSNTAYMQLSSLASEDSAVYYCARGALSNYGGFAYWGQGTLVTVSA VL: NIVLTQSPASLAVSLGQRATISCRASESVDSYGHSFMHWYQQKPGQPPKLLIYLASNLESGVPARFSGSGSRTDFTLTIDPVEADDAATYYCQQNNEDPWTFGGGTKLEIK
6.21	20300	67	96	98	3.1	44200	3.08	73500	F4.49.11 (antibody, human IgG1, V domains shown, human-murine chimeric antibody, human IgG1) VH: DVQLRASGPGLVKPSQSLSLTCSVTGYSITSGYYWNWIRQFPGNKLEWMGCISYDGTNNYNPSLKNRISFTRDTSKNQFFLNLNSVTTEDSATYYCARRVYYRYDGVVDYWGQGTSVTVSS VL: ENVLTQSPAIMSASPGEKVTMTCSASSSVSYIHWYQQKSSTAPKLWIYDTSKLASGVPGRFSGSRSRNSYSLTISSMEAEDVATYYCFQGSGYPLTFGSGTKLEIK
